Test results: patent publication US20260232732A1 (FUNDACI INSTITUT DE RECERCA CONTRA LA LEUC MIA JOSEP …, published 2026)
Values belong to the binder of their own block, whether it stands above or below them. Where no end group is shown, it is not given here. The star is where a group is joined. Biotin = O=C1N[C@H]2[C@H](CS[C@H]2CCCCC(=O)*)N1

What was measured:
[1] = molecular target: T1, biotin-peptide SSMEDYVNFN (human); experiment: ELISA biotin-peptide; scFv 1.25 ug/mL; repI
T1 peptide: Biotin-SSMEDYVNFN
Protocol: (§1) The peptides were synthesized naked or with a N-terminal Biotin modification with a purity of >98%. All four scFvs were verified by ELISA that can be detected with anti-His antibodies. ELISA was performed for scFv-peptide binding validation. Briefly, naked peptides were coated (50 μg/mL) in 0.58M carbonate-bicarbonate buffer pH9.5, 100 μL/well, 4° C. O/N. Then after blocking (3% BSA-PBS, 300 μL/well 37° C. 1.5 h) and washing (PBS+Tween-20 0.05% v/v (0.05% PBST), wells were incubated with each purified scFv antibody at concentration of 1 μg/mL in PBS at 37° C. 1 h. After washing (0.05% PBST), wells were incubated with secondary antibodies (goat anti-His IgG-HRP) in PBS, 37° C., 30 min. After washing, and incubation with TMB substrate, reactions were stopped with 2M HCl and reading was quantified at OD450.
(§2) ELISA with biotin-conjugated peptides (5 μg/mL) was performed very similar to described above with minor modifications.
(§3) A full curve ELISA was performed for each positive scFv/biotin-peptide pair in order to confirm previous results. Tables 15-17 show ELISA results of the dose-dependent full curve for each positive peptide with scFv “CCR9_HUM”, “Comp-2” and “Comp-3”, respectively.

[2] = molecular target: T1, biotin-peptide SSMEDYVNFN; experiment: ELISA biotin-peptide; scFv 1.25 ug/mL; repII
Protocol: as §1, §2, §3

[3] = molecular target: T2, biotin-peptide MEDYVNFNFT (human); experiment: ELISA biotin-peptide; scFv 1.25 ug/mL; repII
T2 peptide: Biotin-MEDYVNFNFT
Protocol: as §1, §2, §3

[4] = molecular target: T3, biotin-peptide TSSMEDYVNF (human); experiment: ELISA biotin-peptide; scFv 1.25 ug/mL; repII
T3 peptide: Biotin-TSSMEDYVNF
Protocol: as §1, §2, §3

[5] = molecular target: T4, biotin-peptide SMEDYVNFNF (human); experiment: ELISA biotin-peptide; scFv 1.25 ug/mL; repII
T4 peptide: Biotin-SMEDYVNFNF
Protocol: as §1, §2, §3

[6] = molecular target: T5, Peptide 4, non-conjugated (SMEDYVNFNF-C) (human); experiment: ELISA; Ab 0.01563 ug/mL; repI
T5 construct: With the extra C-terminal Cys
T5 peptide: SMEDYVNFNFC
Protocol: (§4) In brief, plates with each non-conjugated peptide (50 μg/mL) or BSA-conjugated peptide (5 μg/mL) were coated in 0.58M carbonate-bicarbonate buffer pH9.5, 100 μL/well, at 4° C. […] After washing, wells were incubated with the 3, 3′,5,5′-Tetramethylbenzidine (TMB) HRP substrate and reactions were stopped with 2M HCl and OD450 was recorded.

[7] = molecular target: T6, Peptide 1-BSA (MADDYGSEST-C conjugated to BSA) (human); experiment: ELISA; Ab 0.01563 ug/mL; repI
T6 peptide: MADDYGSESTC(BSA)
Protocol: as §4

[8] = molecular target: T7, Peptide 1, non-conjugated (MADDYGSEST-C) (human); experiment: ELISA; Ab 0.01563 ug/mL; repI
T7 construct: With the extra C-terminal Cys
T7 peptide: MADDYGSESTC
Protocol: as §4

[9] = molecular target: T8, Peptide 3, non-conjugated (SSMEDYVNFN-C) (human); experiment: ELISA; Ab 0.01563 ug/mL; repI
T8 construct: With the extra C-terminal Cys
T8 peptide: SSMEDYVNFNC
Protocol: as §4

[10] = molecular target: T9, Peptide 4-BSA (SMEDYVNFNF-C conjugated to BSA) (human); experiment: ELISA; Ab 0.01563 ug/mL; repI
T9 peptide: SMEDYVNFNFC(BSA)
Protocol: as §4

[11] = molecular target: T10, Peptide 2, non-conjugated (GSESTSSMED-C) (human); experiment: ELISA; Ab 0.01563 ug/mL; repI
T10 construct: With the extra C-terminal Cys
T10 peptide: GSESTSSMEDC
Protocol: as §4

[12] = molecular target: T11, antigen peptide-BSA (immunisation peptide #1 MADDYGSESTSSMEDYVNFNF-C conjugated to BSA) (human, extra C-terminal Cys conjugated to BSA); experiment: ELISA; Ab 0.01563 ug/mL; repI
T11 construct: also called Positive control antigen peptide-BSA; MADDY peptide
T11 peptide: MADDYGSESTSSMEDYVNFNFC
Protocol: as §4

[13] = molecular target: T12, Peptide 3-BSA (SSMEDYVNFN-C conjugated to BSA) (human); experiment: ELISA; Ab 0.01563 ug/mL; repI
T12 peptide: SSMEDYVNFNC(BSA)
Protocol: as §4

[14] = molecular target: T13, BSA (negative control coating) (bovine, UniProt P02769 25-607); experiment: ELISA; Ab 0.01563 ug/mL; repI
T13 construct: also called Negative control BSA
T13 sequence (P02769 25-607 limits assumed): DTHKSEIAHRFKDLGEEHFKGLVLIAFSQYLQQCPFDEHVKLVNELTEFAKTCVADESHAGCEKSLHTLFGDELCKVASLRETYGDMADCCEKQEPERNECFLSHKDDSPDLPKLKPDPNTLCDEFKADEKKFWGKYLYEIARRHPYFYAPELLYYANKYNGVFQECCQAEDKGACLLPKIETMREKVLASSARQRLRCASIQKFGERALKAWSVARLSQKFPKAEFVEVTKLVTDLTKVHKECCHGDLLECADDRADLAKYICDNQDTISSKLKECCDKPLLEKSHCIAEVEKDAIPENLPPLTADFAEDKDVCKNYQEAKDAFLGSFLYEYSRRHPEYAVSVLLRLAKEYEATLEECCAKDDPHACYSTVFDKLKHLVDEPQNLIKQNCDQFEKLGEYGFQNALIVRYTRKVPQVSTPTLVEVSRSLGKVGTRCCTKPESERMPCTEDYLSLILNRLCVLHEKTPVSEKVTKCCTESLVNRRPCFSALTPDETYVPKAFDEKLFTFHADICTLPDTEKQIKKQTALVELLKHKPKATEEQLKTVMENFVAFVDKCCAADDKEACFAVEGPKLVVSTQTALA
Protocol: as §4

[15] = molecular target: T14, Peptide 2-BSA (GSESTSSMED-C conjugated to BSA) (human); experiment: ELISA; Ab 0.01563 ug/mL; repI
T14 peptide: GSESTSSMEDC(BSA)
Protocol: as §4

[16] = molecular target: T5, Peptide 4, non-conjugated (SMEDYVNFNF-C); experiment: ELISA; Ab 1 ug/mL; repI
Protocol: as §4

[17] = molecular target: T6, Peptide 1-BSA (MADDYGSEST-C conjugated …); experiment: ELISA; Ab 1 ug/mL; repI
Protocol: as §4

[18] = molecular target: T7, Peptide 1, non-conjugated (MADDYGSEST-C); experiment: ELISA; Ab 1 ug/mL; repI
Protocol: as §4

[19] = molecular target: T8, Peptide 3, non-conjugated (SSMEDYVNFN-C); experiment: ELISA; Ab 1 ug/mL; repI
Protocol: as §4

[20] = molecular target: T9, Peptide 4-BSA (SMEDYVNFNF-C conjugated …); experiment: ELISA; Ab 1 ug/mL; repI
Protocol: as §4

[21] = molecular target: T10, Peptide 2, non-conjugated (GSESTSSMED-C); experiment: ELISA; Ab 1 ug/mL; repI
Protocol: as §4

[22] = molecular target: T11, antigen peptide-BSA (immunisation …); experiment: ELISA; Ab 1 ug/mL; repI
Protocol: as §4

[23] = molecular target: T12, Peptide 3-BSA (SSMEDYVNFN-C conjugated …); experiment: ELISA; Ab 1 ug/mL; repI
Protocol: as §4

[24] = molecular target: T13, BSA (negative control coating); experiment: ELISA; Ab 1 ug/mL; repI
Protocol: as §4

[25] = molecular target: T14, Peptide 2-BSA (GSESTSSMED-C conjugated …); experiment: ELISA; Ab 1 ug/mL; repI
Protocol: as §4

OD450 [1]: 1.74 OD | OD450 [2]: 1.77 OD | OD450 [3]: 1.49 OD | OD450 [4]: 1.23 OD | OD450 [5]: 1.72 OD
B1: CCR9_HUM2 scFv (humanized anti-CCR9 scFv, SEQ ID NO: 17 with C-terminal 6xHis tag) (scFv)
scFv: QVQLVQSGAEVKKPGASVKVSCTASGYSFTDYIIYWVKQAHGQSLEWMGYIDPNNYNTRYSQKFQGKVTITVDKSSTSAYMELNSLTSDDTAVYYCARDVYWGQGTTVTVSSGGGGSGGGGSGGGGSGGGGSDVVMTQTPLSLSVTPGQPASISCRSSQSLVHSNGKTYLQWYLQKPGQSPKLLIYKVSNRFSGVPDRFSGSGSGTDFTLKISRVEAEDVGVYFCAQSTHVWTFGGGTKVEIKRAHHHHHH

OD450 [6]: 0.38 OD | OD450 [7]: 0.01 OD | OD450 [8]: 0.01 OD | OD450 [9]: 1.47 OD | OD450 [10]: 0.91 OD | OD450 [11]: 0.01 OD | OD450 [12]: 1.1 OD | OD450 [13]: 1.33 OD | OD450 [14]: 0.01 OD | OD450 [15]: 0.01 OD | OD450 [16]: 2.49 OD | OD450 [17]: 0.04 OD | OD450 [18]: 0.02 OD | OD450 [19]: 2.06 OD | OD450 [20]: 2.73 OD | OD450 [21]: 0.03 OD | OD450 [22]: 2.58 OD | OD450 [23]: 2.17 OD | OD450 [24]: 0.02 OD | OD450 [25]: 0.03 OD
B2: anti-CCR9 antibody clone 115 (murine, from hybridoma #115) (antibody, V domains shown)
VH: QVQLKQSGPELVKPGTSVRVSCTASGYSFTDYIIYWVKQSHGRSLEWIGYIDPNNYNTRYSQKFKGKATLTVDKSSTSAFMHLNSLTSDDSAVYYCARDVYWGQGTTLTVSS
VL: DVVMTQTPLSLTVSLGDQASISCRSSQSLVHSNGKTYLQWYLQKPGQSPKLLIYKVSNRFSGVPDRFSGSGSGTDFTLKISRVEAEDLGVYFCAQSTHVWTFGGGTKLEIKR
notes: Mouse IgG1
